Several values for one entry are separate records, joined by “and”; a condition that tells them apart may be missing. Equal entries are not always repeated.
Tests used:
SEC = biological target: the molecule itself; assay: SEC
SEC-MALS = biological target: the molecule itself; assay: SEC-MALS

B1: human podocin domain (residues 126-350) (domain or fragment, UniProt Q9NP85 126-350, looked up)
chain: KVVQEYERVIIFRLGHLLPGRAKGPGLFFFLPCLDTYHKVDLRLQTLEIPFHEIVTKDMFIMEIDAICYYRMENASLLLSSLAHVSKAVQFLVQTTMKRLLAHRSLTEILLERKSIAQDAKVALDSVTCIWGIKVERIEIKDVRLPAGLQHSLAVEAEAQRQAKVRMIAAEAEKAASESLRMAAEILSGTPAAVQLRYLHTLQSLSTEKPSTVVLPLPFDLLNCL
SEC
  stoichiometry N: 16
SEC-MALS
  stoichiometry N: ~16 and 25 and 13
